Test results: US5856161, “Tumor necrosis factor receptor-I-associated protein kinase and methods for its use” (Research Development Foundation, dated 1999)

How the values were obtained:
cdk2 = cdk2 (human (endogenous, U937 cells); not …, UniProt P24941); assay: in vitro translated 35S-labelled protein, pull-down with GST-p80CD on glutathione agarose
Procedure: (§1) U937 cells lysates (15×10⁶/assay) were prepared and affinity precipitated with the indicated fusion protein as described below. Whole cell extracts were prepared from 2×10⁶ U937 cells by boiling the cells in 100 μl of SDS-sample buffer. Proteins were resolved by 8.5% SDS-polyacrylamide gel electrophoresis, transferred to PVDF membrane, and probed with the indicated antibodies. The mock reaction contains GST-p60Δ8 without U937 cell lysates. […] The samples were subjected to 8.5% SDS-polyacrylamide gel electrophoresis and analyzed by a PhosphorImager. Ten percent of total ^35S-labeled protein (10% input) added to each binding reaction was loaded as a standard. […] The conditions utilized for this experiment were similar to those previously described (Dyson et al., 1989). Briefly, U937 cells were either treated without or with 0.1 nM TNF for 5 minutes. […] Precipitates bound to protein A/G sepharose beads were collected by centrifugation and washed four times in lysis buffer and one time in kinase buffer. The samples were subjected to 8.5% SDS-polyacrylamide gel electrophoresis and analyzed by a PhosphorImager and ImageQuant software.

cdc2 = cdc2 (human, UniProt P06493); assay: as above
Procedure: as §1

cdk4 = cdk4 (human, UniProt P11802); assay: precipitation of U937 cell extracts with p13^suc1 -agarose, immunoblot
Procedure: U937 cells (4×10^6) were lysed and precipitated with p13^suc1 agarose. Beads were collected by centrifugation, washed with lysis buffer, and boiled in the presence of SDS-sample buffer. […] Immunoreactive bands were detected using horseradish peroxidase-conjugated secondary antibodies and the Enhanced Chemiluminescence system (ECL). […] Equal amounts of U937 cell lysates were incubated with 25 μg of either GST bound to glutathione agarose (−) or p13^suc1-agarose (+) for 1 hour at 4° C. with shaking. The beads were collected by centrifugation, and the supernatant was once more centrifuged. An equal volume of the supernatant was affinity precipitated with GST-p60Δ15. The precipitates were washed extensively, and in vitro kinase assays with histone H1 (5 μg) were performed as described below. Proteins were separated by 8% SDS-polyacrylamide gel electrophoresis and analyzed by a PhosphorImager and ImageQuant software. […] Equal amounts of U937 cell lysates were incubated with either GST bound to glutathione agarose (−) or p13^suc1-agarose (+) for 1 hour at 4° C. with shaking. The beads were collected by centrifugation, and the supernatant was once more centrifuged. An equal volume of the supernatant was affinity precipitated with either GST-p60Δ8 or GST-p60Δ15. The precipitates were washed extensively, and in vitro kinase assays with Rb^110 (0.2 μg) were performed as described below.

| binding result (cdk2) | binding result (cdc2) | binding result (cdk4) | Binder |
| --- | --- | --- | --- |
| no binding | no binding |  | GST-p80CD (receptor) KKKPLCLQREAKVPHLPADKARGTQGPEQQHLLITAPSSSSSSLESSASALDRRAPTRNQPQAPGVEASGAGEARASTGSSDSSPGGHGTQVNVTCIVNVCSSSDHSSQCSSQASSTMGDTDSSPSESPKDEQVPFSKEECAFRSQLETPETLLGSTEEKPLPLGVPDAGMKPS |
|  |  | no binding | p13^suc1 -agarose (other) SKSGVPRLLTASERERLEPFIDQIHYSPRYADDEYEYRHVMLPKAMLKAIPTDYFNPETGTLRILQEEEWRGLGITQSLGWEMYEVHVPEPHILLFKREKDYQMKFSQQRGG |
